Experimental data reported in publication PMC2756588.
Where “and” joins values, the source holds several entries; their conditions need not be identical. Equal entries are not always repeated.

target: T1, Hse1, P38753; test: SPOT array; conditions: median of control spots 1727
T1 sequence (P38753 208-285, looked up): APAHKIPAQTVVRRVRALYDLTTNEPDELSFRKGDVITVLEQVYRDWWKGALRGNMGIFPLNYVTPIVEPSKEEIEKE

Row | Binder | SPOT intensity
1 | SSSSTPPTLPPRRIE | 9
2 | RHLKNIPRIPIFSIL | 307 and 687
3 | SPAPIVPREPLRNEP | 2790 and 3860

target: Sho1, P40073; test: SPOT array; conditions: median of control spots 1148
Sequence (P40073 287-367): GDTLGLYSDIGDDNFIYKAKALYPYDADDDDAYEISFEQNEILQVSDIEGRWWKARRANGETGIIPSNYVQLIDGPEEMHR

Row | SPOT intensity | Binder
4 | 160 and 101 | RHLKNIPRIPIFSIL
5 | 267 and 126 | VSKLRSPNTPRRLRK

The next lines start with the binder.

Row | Binder | SPOT intensity
6 | SSSSTPPTLPPRRIE | 0
7 | SPAPIVPREPLRNEP | 138 and 78

target: T2, Sla1-2, P32790; test: SPOT array; conditions: median of control spots 712
T2 sequence (P32790 60-140, looked up): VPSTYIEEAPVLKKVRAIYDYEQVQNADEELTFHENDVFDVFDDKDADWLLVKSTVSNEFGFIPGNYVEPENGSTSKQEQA

Row | Binder | SPOT intensity
8 | SSSSTPPTLPPRRIE | 1
9 | RHLKNIPRIPIFSIL | 0
10 | VSKLRSPNTPRRLRK | 0

target: Rvs167, P39743; test: SPOT array; conditions: median of control spots 2707
Sequence (P39743 419-482): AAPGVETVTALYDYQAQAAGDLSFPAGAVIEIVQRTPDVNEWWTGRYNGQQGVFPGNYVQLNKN

Row | Binder | SPOT intensity
11 | SSSSTPPTLPPRRIE | 5650
12 | SPAPIVPREPLRNEP | 2590 and 3300

target: T3, Boi2, P39969; test: SPOT array; conditions: median of control spots 1161
T3 sequence (P39969 32-116, looked up): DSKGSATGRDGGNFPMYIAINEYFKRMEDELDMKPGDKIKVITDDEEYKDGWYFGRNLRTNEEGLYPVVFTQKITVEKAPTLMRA

Row | Binder | SPOT intensity
13 | SSSSTPPTLPPRRIE | 0
14 | RHLKNIPRIPIFSIL | 3 and 1
15 | SPAPIVPREPLRNEP | 28 and 50

target: T4, Cdc25, P04821; test: SPOT array; conditions: median of control spots 969
T4 sequence (P04821 50-136, looked up): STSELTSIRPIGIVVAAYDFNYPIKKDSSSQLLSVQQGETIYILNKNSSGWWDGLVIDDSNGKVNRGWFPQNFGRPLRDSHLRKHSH

Row | SPOT intensity | Binder
16 | 230 and 113 | RHLKNIPRIPIFSIL
17 | 55 and 39 | VSKLRSPNTPRRLRK

Further lines, the binder ahead of its results:

Row | Binder | SPOT intensity
18 | SSSSTPPTLPPRRIE | 2
19 | SPAPIVPREPLRNEP | 240 and 142

target: T5, Sla1-3, P32790; test: SPOT array; conditions: median of control spots 5475
T5 sequence (P32790 344-424, looked up): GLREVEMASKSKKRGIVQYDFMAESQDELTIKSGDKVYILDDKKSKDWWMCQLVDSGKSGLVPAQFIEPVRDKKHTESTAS

Row | SPOT intensity | Binder
20 | 992 and 402 | RHLKNIPRIPIFSIL
21 | 9 and 7 | VSKLRSPNTPRRLRK

Second part, the binder before the results:

Row | Binder | SPOT intensity
22 | SSSSTPPTLPPRRIE | 1
23 | SPAPIVPREPLRNEP | 3540 and 3050

target: T6, Lsb1, P53281; test: SPOT array; conditions: median of control spots 388
T6 sequence (P53281 45-122, looked up): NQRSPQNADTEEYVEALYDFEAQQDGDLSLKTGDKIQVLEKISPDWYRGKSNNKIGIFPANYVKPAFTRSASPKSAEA

Row | Binder | SPOT intensity
24 | SSSSTPPTLPPRRIE | 1360

target: T7, Pex13, P80667; test: SPOT array; conditions: median of control spots 1341
T7 sequence (P80667 295-386, looked up): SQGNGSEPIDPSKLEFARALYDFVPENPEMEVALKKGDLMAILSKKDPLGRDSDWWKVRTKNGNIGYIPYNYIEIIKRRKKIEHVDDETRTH

Row | SPOT intensity | Binder
25 | 163 and 113 | RHLKNIPRIPIFSIL
26 | 3 and 1 | VSKLRSPNTPRRLRK

The next lines start with the binder.

Row | Binder | SPOT intensity
27 | SSSSTPPTLPPRRIE | 365
28 | SPAPIVPREPLRNEP | 403 and 875

target: T8, Fus1, P11710; test: SPOT array; conditions: median of control spots 1200
T8 sequence (P11710 432-512, looked up): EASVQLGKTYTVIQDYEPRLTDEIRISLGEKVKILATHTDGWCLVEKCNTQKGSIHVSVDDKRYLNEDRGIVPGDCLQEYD

Row | Binder | SPOT intensity
29 | SSSSTPPTLPPRRIE | 0
30 | RHLKNIPRIPIFSIL | 1870 and 1460
31 | SPAPIVPREPLRNEP | 227 and 99

target: Myo3, P36006; test: SPOT array; conditions: median of control spots 468

Row | SPOT intensity | Binder
32 | 14 and 19 | RHLKNIPRIPIFSIL
33 | 8 and 6 | VSKLRSPNTPRRLRK

More lines, now with the values behind:

Row | Binder | SPOT intensity
34 | SSSSTPPTLPPRRIE | 99
35 | SPAPIVPREPLRNEP | 122 and 104

target: T9, Nbp2, Q12163; test: SPOT array; conditions: median of control spots 357
T9 sequence (Q12163 103-180, looked up): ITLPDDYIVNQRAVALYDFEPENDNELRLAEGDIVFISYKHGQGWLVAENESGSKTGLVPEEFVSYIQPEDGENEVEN

Row | Binder | SPOT intensity
36 | SSSSTPPTLPPRRIE | 0
37 | RHLKNIPRIPIFSIL | 184 and 63
38 | VSKLRSPNTPRRLRK | 0

target: T10, Pin3, Q06449; test: SPOT array; conditions: median of control spots 2171
T10 sequence (Q06449 53-122, looked up): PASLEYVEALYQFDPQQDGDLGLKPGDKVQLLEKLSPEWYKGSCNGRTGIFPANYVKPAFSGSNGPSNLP

Row | SPOT intensity | Binder
39 | 84 | RHLKNIPRIPIFSIL
40 | 5 and 3 | VSKLRSPNTPRRLRK

More lines, now with the values behind:

Row | Binder | SPOT intensity
41 | SSSSTPPTLPPRRIE | 58
42 | SPAPIVPREPLRNEP | 721 and 289

target: Bem1-2, P29366; test: SPOT array; conditions: median of control spots 4347
Sequence (P29366 139-227): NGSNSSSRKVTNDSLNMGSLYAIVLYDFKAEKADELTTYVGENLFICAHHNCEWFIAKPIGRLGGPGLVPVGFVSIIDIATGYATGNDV

Row | Binder | SPOT intensity
43 | SSSSTPPTLPPRRIE | 0
44 | RHLKNIPRIPIFSIL | 4830 and 2260
45 | SPAPIVPREPLRNEP | 2910 and 3310

target: T11, Abp1, P15891; test: SPOT array; conditions: median of control spots 935
T11 sequence (P15891 535-592, looked up): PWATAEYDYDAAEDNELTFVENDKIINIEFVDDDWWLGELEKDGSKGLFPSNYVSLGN

Row | SPOT intensity | Binder
46 | 49 and 31 | RHLKNIPRIPIFSIL
47 | 216 and 273 | VSKLRSPNTPRRLRK

The next lines start with the binder.

Row | Binder | SPOT intensity
48 | SSSSTPPTLPPRRIE | 19
49 | SPAPIVPREPLRNEP | 122 and 106

target: Bem1-1, P29366; test: SPOT array; conditions: median of control spots 4282
Sequence (P29366 55-141): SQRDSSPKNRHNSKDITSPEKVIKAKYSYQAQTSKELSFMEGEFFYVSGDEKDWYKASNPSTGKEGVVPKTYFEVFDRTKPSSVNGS

Row | SPOT intensity | Binder
50 | 823 and 2170 | RHLKNIPRIPIFSIL
51 | 1 and 3 | VSKLRSPNTPRRLRK

More lines, now with the values behind:

Row | Binder | SPOT intensity
52 | SSSSTPPTLPPRRIE | 0
53 | SPAPIVPREPLRNEP | 3190 and 3200

target: T12, Hof1, Q05080; test: SPOT array; conditions: median of control spots 4086
T12 sequence (Q05080 590-669, looked up): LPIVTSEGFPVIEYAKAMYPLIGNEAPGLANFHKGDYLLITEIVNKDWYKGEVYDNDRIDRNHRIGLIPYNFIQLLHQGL

Row | Binder | SPOT intensity
54 | SSSSTPPTLPPRRIE | 5
55 | RHLKNIPRIPIFSIL | 5560 and 3670
56 | SPAPIVPREPLRNEP | 1550 and 3190

target: T13, Lsb3, P43603; test: SPOT array; conditions: median of control spots 406
T13 sequence (P43603 385-451, looked up): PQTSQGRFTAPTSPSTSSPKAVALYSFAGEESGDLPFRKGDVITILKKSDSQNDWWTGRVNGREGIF

Row | Binder | SPOT intensity
57 | SSSSTPPTLPPRRIE | 1090
58 | VSKLRSPNTPRRLRK | 72 and 49
59 | SPAPIVPREPLRNEP | 46 and 25

target: T14, Lsb4, P32793; test: SPOT array; conditions: median of control spots 397
T14 sequence (P32793 402-468, looked up): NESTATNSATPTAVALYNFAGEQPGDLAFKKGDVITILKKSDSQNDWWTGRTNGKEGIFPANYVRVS

Row | SPOT intensity | Binder
60 | 4 and 7 | RHLKNIPRIPIFSIL
61 | 206 and 92 | VSKLRSPNTPRRLRK

Continued, binder first:

Row | Binder | SPOT intensity
62 | SSSSTPPTLPPRRIE | 907
63 | SPAPIVPREPLRNEP | 114 and 89

target: T15, Myo5, Q04439; test: SPOT array; conditions: median of control spots 471
T15 sequence (Q04439 1072-1160, looked up): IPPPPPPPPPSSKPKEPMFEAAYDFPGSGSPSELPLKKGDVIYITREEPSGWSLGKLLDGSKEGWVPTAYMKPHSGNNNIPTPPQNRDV

Row | Binder | SPOT intensity
64 | SSSSTPPTLPPRRIE | 11
65 | RHLKNIPRIPIFSIL | 5 and 3
66 | SPAPIVPREPLRNEP | 88 and 90

target: T16, Bbc1, P47068; test: SPOT array; conditions: median of control spots 796
T16 sequence (P47068 1-78, looked up): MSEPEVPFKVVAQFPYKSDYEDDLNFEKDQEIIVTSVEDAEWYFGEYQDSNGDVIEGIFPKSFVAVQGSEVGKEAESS

Row | SPOT intensity | Binder
67 | 25 and 23 | RHLKNIPRIPIFSIL
68 | 223 and 226 | VSKLRSPNTPRRLRK

Further lines, the binder ahead of its results:

Row | Binder | SPOT intensity
69 | SSSSTPPTLPPRRIE | 11
70 | SPAPIVPREPLRNEP | 49 and 40

target: GST; test: SPOT array; conditions: median of control spots 978

Row | Binder | SPOT intensity
71 | SSSSTPPTLPPRRIE | 0
72 | VSKLRSPNTPRRLRK | 3 and 1
73 | SPAPIVPREPLRNEP | 1000 and 337

target: T17, Boi1, P38041; test: SPOT array; conditions: median of control spots 1162
T17 sequence (P38041 1-86, looked up): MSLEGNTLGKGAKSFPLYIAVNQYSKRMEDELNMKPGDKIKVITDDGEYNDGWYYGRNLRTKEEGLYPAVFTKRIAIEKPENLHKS

Row | SPOT intensity | Binder
74 | 14 and 10 | RHLKNIPRIPIFSIL
75 | 8 and 4 | VSKLRSPNTPRRLRK

The next lines start with the binder.

Row | Binder | SPOT intensity
76 | SSSSTPPTLPPRRIE | 0
77 | SPAPIVPREPLRNEP | 45 and 64

target: T18, Bzz1-1, P38822; test: SPOT array; conditions: median of control spots 4446
T18 sequence (P38822 478-572, looked up): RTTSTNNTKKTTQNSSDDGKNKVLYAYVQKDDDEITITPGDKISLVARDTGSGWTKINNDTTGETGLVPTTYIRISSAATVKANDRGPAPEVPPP

Row | Binder | SPOT intensity
78 | SSSSTPPTLPPRRIE | 0
79 | VSKLRSPNTPRRLRK | 0
80 | SPAPIVPREPLRNEP | 3070 and 3750

target: T19, Cyk3, Q07533; test: SPOT array; conditions: median of control spots 1451
T19 sequence (Q07533 1-83, looked up): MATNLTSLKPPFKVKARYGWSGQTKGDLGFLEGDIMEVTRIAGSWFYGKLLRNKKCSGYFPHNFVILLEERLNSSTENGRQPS

Row | SPOT intensity | Binder
81 | 1 and 3 | RHLKNIPRIPIFSIL
82 | 2 and 1 | VSKLRSPNTPRRLRK

Further lines, the binder ahead of its results:

Row | Binder | SPOT intensity
83 | SSSSTPPTLPPRRIE | 0
84 | SPAPIVPREPLRNEP | 241 and 231

target: T20, Bud14, P27637; test: SPOT array; conditions: median of control spots 956
T20 sequence (P27637 247-328, looked up): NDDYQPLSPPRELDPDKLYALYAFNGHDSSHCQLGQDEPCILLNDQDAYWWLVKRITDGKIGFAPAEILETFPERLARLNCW

Row | SPOT intensity | Binder
85 | 16 and 18 | RHLKNIPRIPIFSIL
86 | 6 | VSKLRSPNTPRRLRK

Continued, binder first:

Row | Binder | SPOT intensity
87 | SSSSTPPTLPPRRIE | 0
88 | SPAPIVPREPLRNEP | 184 and 188

target: T21, Bzz1-2, P38822; test: SPOT array; conditions: median of control spots 4538
T21 sequence (P38822 568-633, looked up): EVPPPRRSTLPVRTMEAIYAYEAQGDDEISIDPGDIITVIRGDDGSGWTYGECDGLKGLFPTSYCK

Row | Binder | SPOT intensity
89 | SSSSTPPTLPPRRIE | 0
90 | RHLKNIPRIPIFSIL | 394 and 164
91 | SPAPIVPREPLRNEP | 4030 and 3640
